The source of these data is US6982321.

Experiment [1] deals with hen eggwhite lysozyme (hen) (UniProt P00698). Briefly: fluorescence quenching titration with hen eggwhite lysozyme.
For experiment [2] the target is unchanged. Briefly: fluorescence titration with lysozyme, 50 nM antibody, 25°.
The target in experiment [3] is Campath-1 antigen on human lymphocytes (human) (UniProt P31358). Briefly: cell-based or functional assay.
In experiment [4] the target is partially purified Campath-1 antigen (obtained from a glycolipid extract from human spleen) (human) (UniProt P31358). Briefly: direct binding assay on coated partially purified Campath-1 antigen, biotin anti-rat IgG2b detection; concentration at 50% maximal binding.
For experiment [5] the target is unchanged. Briefly: direct binding assay on coated partially purified Campath-1 antigen; concentration at 50% binding.

Chain of RaVHCAMP-RaIgG2B (P20761 whole entry): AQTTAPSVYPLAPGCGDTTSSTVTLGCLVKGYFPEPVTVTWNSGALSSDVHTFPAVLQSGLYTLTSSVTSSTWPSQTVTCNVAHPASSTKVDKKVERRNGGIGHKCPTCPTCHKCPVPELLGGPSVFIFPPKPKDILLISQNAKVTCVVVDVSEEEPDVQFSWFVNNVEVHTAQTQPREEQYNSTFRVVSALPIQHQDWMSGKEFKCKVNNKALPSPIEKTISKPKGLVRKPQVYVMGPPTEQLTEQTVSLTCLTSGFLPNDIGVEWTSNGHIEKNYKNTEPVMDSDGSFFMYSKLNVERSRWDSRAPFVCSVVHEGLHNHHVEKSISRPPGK
Chain of hen eggwhite lysozyme (hen) (P00698 19-147 limits assumed): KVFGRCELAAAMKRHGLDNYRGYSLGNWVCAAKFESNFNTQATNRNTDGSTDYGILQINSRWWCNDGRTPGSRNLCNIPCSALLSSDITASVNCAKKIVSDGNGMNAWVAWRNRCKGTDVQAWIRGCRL
Chain of HuVHCAMP(Ser27 to Phe, Ser30 to Thr)-RaIgG2B (P20761 whole entry): as the sequence (P20761 whole entry) above
Chain of HuVHCAMP(Ser27 to Phe)-RaIgG2B (P20761 whole entry): as above
Chain of HuVHCAMP-RaIgG2B (P20761 whole entry): as above

D1.3 (H2K2) (antibody) yielded a Kd in experiment [1] of 14.4 nM. Further, in experiment [2], the equivalence point (binding sites per mole) (binding sites per mole) came to 1.8.
For D1.3 (H2K2) (reassociated) (antibody), the Kd in experiment [1] was found to be 11.4 nM.
On to “HuVHCAMP(Ser27 to Phe)-RaIgG2B (from UniProt P20761 1-333) (antibody)”, for which the Concentration of antibody in ug/ml at 50% binding or lysis: complement lysis in experiment [3] is 16.3 µg/mL. The same substance had an EC50 in experiment [4] of 1.8 µg/mL.
The substance “HuVHCAMP(Ser27 to Phe, Ser30 to Thr)-RaIgG2B (from UniProt P20761 1-333) (antibody)” registered a Concentration of antibody in ug/ml at 50% binding or lysis: complement lysis in experiment [3] of 17.6 µg/mL. Moreover, the half-maximal effective concentration (EC50) in experiment [4] turned out to be 2 µg/mL.
“HuVHCAMP-RaIgG2B (from UniProt P20761 1-333) (antibody)”: in experiment [4], the EC50 was determined as 27.3 µg/mL.
As for “RaVHCAMP-RaIgG2B (from UniProt P20761 1-333) (antibody)”, the values for the EC50 in experiment [5] and in experiment [4] were 1.01 µg/mL and 0.7 µg/mL, respectively. Besides, the Concentration of antibody in ug/ml at 50% binding or lysis: complement lysis in experiment [3] is 2.1 µg/mL.
For “recombinant D1.3 (H*2K2) (reassociated) (antibody)”, the Kd in experiment [1] was determined as 9.2 nM.
